# Experiment: soluble on expression in E. coli; label from the status in PepcDB or PDB records
row,Sequence,soluble on expression in E. coli
1,GSPHMDEISETNTIFKLEGVSVLSPLRKKLDLVFYLSNVDGSPVITLLKGNDRELSIYQLNKNIKMASFLPVPEKPNLIYLFMTYTSCEDNKFSEPVVMTLNKENTLNQFKNLGLLDSNVTDFEKCVEYIRKQAILTGFKISNPFVNSTLVDTDAEKINSFHLQCHRGTKEGTLYFLPDHIIFGFKKPILLFDASDIESITYSSITRLTFNASLVTKDGEKYEFSMTDQTEYAKIDDYVKRKQMKDKSMSEELKAKSKSKG,soluble
2,MGSDKIHHHHHHMILTKEKSLNAGPIYGTGEGVAHSKRWYVALVRMHHEKKVSEYLNKVGIENFVPVQKEIHQWSDRRKLVESVLLPMMVFVHADPKERMEVLNFTTVSRYMVMRGESSPAVIPDDQMARFRFMLDYSDETVCMNSSPLARGEKVQVIKGPLQGLVGELVNVDGKSKIAVRLNMLGCACVDMPIGYVEPIGEKN,not soluble
3,MFCRDTLCDTTPAVTDFLNGLSAVASKSPCSGDGALSDGHNAQSRMPVMGHVFLTGLLCVSRLARKRQLLLKRLKQSALPPRASATPSMEDVAVQSPSAAADAGDTVFVRLVLSLLGHTLMKQATTAPCAASPGDNASPQAAPLPWWPATSAPSENAEDVVYDVQCVGNEDDHAGDNVGFSEEHAPGVGHMLFTASTSVHCRIVLRSHPVAIFSPAMMSELALDAEQRASVASRTWCHGGAPGTDSSEAVDAEADAGSCVARALEVFDACVRDHEEACLRQIAEIVGSLQRLLEKPATEVQSPGGLASTGSPSDSANASASRLGGCASPLHEWTIDVPIYGVVLYIEDTHATRLERVRRLTTPLLQAATGCGNAAGGPLGPVTQVLSKLHTWCAAWTAASSTSSTSPGASSCTPGIRTITLMHVTELRQLVDSHLKNSQTAAARLPGPANPATVGYDVSQALAAPACVVHCQLGVSRSPSVVMLFYMDVLAPQLRAAASAAEAPLNIFHGLLNALVQARHRVRPNVCFSAQLLSLWRRLMQLDTPASPTRVV,not soluble
4,MGSDKIHHHHHHMMATIKDIAKEVGCSISTVSRVLNNDPTLSVGDETRSRIFEVAEEIGYRKKTLKTLVKNIAFLYWLTDNEELEDVYFQTMRVEIEKKARENNIELTTYKLEGGIEKIPLDIDGFIAVGSFMNRELEYLRELTPHGVFIDSTPDPAHYDSVRPDLAQITRQAVEVLVEQGHEKIGFIGGTYHNLDTDAEEMDGRERAFRQTMEERDLLREDFIFCRRGFSVDNGHYLMNQAVEQLGEELPTAFYVAADPIAVGCLQVLNEQQIEIPKRVSLISVNDTSISKYVSPPLTTFHIDLEEICQNAIQLLLERVLKKRNIVKTVYIGAELITRKSTL,not soluble
5,MGCSSQTHSSQKETTIPVTLHVEDAKGLPVEGVQVTIVKAPSSDEEPSTEIGEILGKTDKNGDIKWDTGRKGDYSVALTKGETSVTHHISLTEDKKDHAIPLVFKELEHHHHHH,soluble
6,MGDTFIRHIALLGFEKRFVPSQHYVYMFLVKWQDLSEKVVYRRFTEIYEFHKTLKEMFPIEAGAINPENRIIPHLPAPKWFDGQRAAENRQGTLTEYCSTLMSLPTKISRCPHLLDFFKVRPDDLKLPTDNQTKKPETYLM,soluble
7,MSANKELQQGYSDYSAASDQAALLNRLITAMQKGELTDELLEHIPELGDAKKLNDKLKYRKSILEKSIAEQAAKNKKNGVKATSTSSPSSSTSAPAEKKAKKDGKTGGAPPKQAKKVDYVTVEDYGSSIFGRLQSLFKKAIEDAFPGLDVPLLLAETPNPQFGDYQCNSAMPIAAKLKANKINKRPGDVAKEIQAKLPTKIDFVEKIDVMPAGFINIFLNTDYLRRQISLLASEGVKLPKLTRKRVLVDFSSPNIAKEMHVGHLRSTIIGDSICRLFEAVGFDVLRVNHIGDWGTQFGMLIAHLYDRFPDFLKKLPDISDLQAFYKESKKRFDEDEQFKKRAYEYVVKLQSHDGDIVKAWNTICDVSKKYNQIVYNYLDIKIKDVGESFYQDKMIELVKWVKTNKPDMLREEDGRQIMFPTGCDIPLTVVKSDGGFTYDTSDLAALKYRMLEEKCDWNIYVVDSGQSLHLETVYAAGRDFGWYDESIQRVEHVAFGLVLGDDKKKFKTRSGETVRLLDLLSEGVKRATEKLIEKGRETAMSEEQLVAARDAVAFGCVKYADLSHTRTQDYVFSFDRMLEDRGNTAVYLLYAYTRIQSIFEKDEVKNVDLVKYIASTPTLPLDHPGEFKLAKQLLKLSDCVLLVLDSLMLHQMCDYVYQLATLFHDFYNECYVIENKEGEKPFVHMHRLALCDVTRKVMSTCFKILGLREVNKM,not soluble
8,MSLLQTKPYTFWFITGSQHLYGEDAIEQVRQHSQTMVEKLNKIGELPYTIELKEVLTTPDAIRKMVIAANSDDDCAGMITWMHTFSPAKMWINGLKQLKKPLLHLHTQFNREIPYDDIDMDFMNLNQSAHGDREYGHIGARLNISRKVIVGHWQNNDVQERLGAWMRTAAAFVDGHHLKVARFGDNMREVAVTEGDKVEAQIQFGWSITAFGIGDLVEKMKAVSEDEVRRLFDEYQELYRLSPSILEQDEVKAAVLEQAKMELALKEFLEEGGYTAFTTNFEDLHGMKQLPGLAVQRLMAEGYGFGGEGDWKTAALLRMMKIIADGKGTSFMEDYTYHLAEGNELVLGSHMLEICPTIAANQPEIQVHPLGIGGKEDPARLVFDGADGPALNASLIDLGHRFRLVVNEVEAIKPERDMPKLPVAKVLWKCKPSLSEATEAWIHAGGAHHTVFSFEVTPEQLYDWATLADIEVVFINDKTDVLQFQQQLQWNEAFRRLFKEGHHHHHH,soluble
9,MIHTLAKCEWIKKSLPLCLIGDSGTGKSHLLIALGTEAAMAGYRVKYVLATKLVNELVEAADEKQLTKTIARYGRVDLLCIDELGYMELDRRGAELLFQVLTEREEKNSVAIASNESFSGWTKTFTDPRLCAAIVDRLTFGGNIIETGTDSYRLATTRARAEQQAVVLEHHHHHH,not soluble
10,MSLTNLFQDDSLTLHTDLYQLNMMKAYFDDGLHERRSVFEVFFRDMPFDSGFVVFAGLERIIHYMQNLRFTETDIAYLHDELGFDGPFLEYLRNFKFKGNILAAKEGEFVFKTEPILQVEASLAEAQLIETALLNIVNFQTLIATKAARIRSVIDDETFAEFGTRRAQEMDAAIWGTRAAYIGGCDSTSNVRAGKIFGIPVSGTMAHAMVQAYRDELEAFRSYAKTHFDSIFLVDTYDTLKSGVPNAIKVAKEMGDKINFIGIRLDSGDMAFLSKKARQMLDEAGFTEAKIFASSDLDEHTILSLKAQKAKIDSWGVGTKLITAYDQPALGAVYKMAAIADENDILQDSIKLSSNTEKVSTPGKKKVYRIITNEDGLKAEGDYIALADESLENVDKLTMFHPVHTYIMKTVENFTARELLVPIFQNGELVYDMPSLDEIKAYKEENLALLWDEYKRTVRPEQYPVDLSVKCWKNKMRNIEKVRKSVQLHSPVELDMPFEGHHHHHH,soluble
11,MKNIIRTPETHPLTWRLRDDKQPVWLDEYRSKNGYEGARKALTGLSPDEIVNQVKDAGLKGRGGAGFSTGLKWSLMPKDESMNIRYLLCNADEMEPGTYKDRLLMEQLPHLLVEGMLISAFALKAYRGYIFLRGEYIEAAVNLRRAIAEATEAGLLGKNIMGTGFDFELFVHTGAGRYICGEETALINSLEGRRANPRSKPPFPATSGVWGKPTCVNNVETLCNVPAILANGVEWYQNISKSKDAGTKLMGFSGRVKNPGLWELPFGTTAREILEDYAGGMRDGLKFKAWQPGGAGTDFLTEAHLDLPMEFESIGKAGSRLGTALAMAVDHEINMVSLVRNLEEFFARESCGWCTPCRDGLPWSVKILRALERGEGQPGDIETLEQLCRFLGPGKTFCAHAPGAVEPLQSAIKYFREEFEAGIKQPFSNTHLINGIQPNLLKERWLEHHHHHH,not soluble
12,MRLSFLTLQRRNAVGDALRHKSALRRILKTGRRASGTACDAERRTIVEKLPHDSLEHHHHHH,not soluble
13,MNAMERENTVKSVRRALQIIEIVSTKKDGLGVTEIAKQMDINKSSVYRILTTLAQYGYIEQHPETERYKLGYKFLELSSKLLDSIDLRQEAKPYLRELEKETNEVIHLVVYDQGEVIYIEKLEGTETLRMHSKVGKRAPMHCTAVGKAILAHLPPAVAAEIIDRKGLPKHTDWTITDREAFFRELETVRQNGYALDLEENEYGIRCVAVPIFDYTGGVVAAISVSGPTIRMTDDRITSLTVRMRQIGKELSARLGYRGAHSVQL,soluble
14,RPKLTDGVQSGDVQGDRALVWSRTDRPARMIVEWDTRSVFSEPRRLVSPVTDERLDYTARIDLRGLPADQSIFYRVRFEDARDGSLSKPWFGHLRSAPSEARNIRFVWSGDTCGQGFGINPDIGGMRIYEAMRRRQPDFFLHSGDTIYADGPIPERIETESGRIWRNRVTEAKSKVAETLDEFRGNYRYNLLDDNLRRFNAEVPQIWQWDDHETTNNWSSSKQLDERYQVKDIDVLAARARQAFLEYAPLRFQRQGRDGRIYRKVAYGPLLDVFVLDMRSYRGGNSANLQARRSAATDFLGREQLQWLKRELRGSRAQWKVIAADMPIGLCVPDGKDAQGRDRWEAIANGNDGAALGRELEIADLLRFVQRAGVRNTVWLTADVHYCAAHHYSPERAAFKDFAPFWEFVAGPLNAGSFGPNALDGTFGPQVMFQKAPLVQNSSPFAGYQFFGEVEIDAQSRALTVTLRDLDGEPVFSQELQPD,not soluble
15,VPVPPAADHKGWDFVEGYFHQFFLTKKESPLLTQETQTQLLQQFHRNGTDLLDMQMHALLHQPHCGVPDGSDTSISPGRCKWNKHTLTYRIINYPHDMKPSAVKDSIYNAVSIWSNVTPLIFQQVQNGDADIKVSFWQWAHEDGWPFDGPGGILGHAFLPNSGNPGVVHFDKNEHWSASDTGYNLFLVATHEIGHSLGLQHSGNQSSIMYPTYWYHDPRTFQLSADDIQRIQHLYGEKCSSDIP,soluble
16,MSNFWVIALNKNWATLDQVKEAYYYDDVTKEELKEGVDNNLITPEQYQEIVGEAYTSVTLSTELEHHHHHH,not soluble
17,MITMLERVPTGIPGFDELCSGGLLRDRSYLVSGPSGSGKTIFAMQYLVNGIEKYNEPGVFVATEERPQHLREHFLTFGWDLEKYEDENMLAIVDATSTKIGLPSDERYIDVRPFDTRSLLDQIITIQDEIGARRAVVDSTTSIGFTISDPAKFRVELLKISTTMEILGLTSILTCEVVEGGGDKISRFGVENFVVEGTIVLYYTRIENTRVRSIEIFKMRGTNHSSKIHPFEITENGIVVYSKEEVFA,not soluble
18,MKAVYPGSFDPITLGHVDIIKRALSIFDELVVLVTENPRKKCMFTLEERKKLIEEVLSDLDGVKVDVHHGLLVDYLKKHGIKVLVRGLRAVTDYEYELQMALANKKLYSDLETVFLIASEKFSFISSSLVKEVALYGGDVTEWVPPEVARALNEKLKEGKR,not soluble
19,PVPPLPEHGGKVRFGLIPEEFFQFLYPKTGVTGPYVLGTGLILYLLSKEIYVITPETFSAISTIGFLVYIVKKYGASVGEFADKLNEQKIAQLEEVKQASIKQIQDAIDMEKSQQALVQKRHYLFDVQRNNIAMALEVTYRERLHRVYREVKNRLDYHISVQNMMRQKEQEHMINWVEKRVVQSISAQQEKETIAKCIADLKLLSKKAQAQPVM,soluble
20,MAHHHHHHMLKLQLDATAIEDELKLSANSKSANTVSSKTPRPDKFAAYHTLRLLFVPIWKRYRFHKQMVWATAIVAKHVLLKVHWRRQRRSERATDTFLHVLRIPRTKLRCAAHLLEGQVVRIQRAFRRHRARVQAVVELNYRKVRRDVEEAYWEAVVTQHEAELAVQQRPFSPVPKAVREVFGARAEARARFGSIQRRTSLLSSAGNSSYDTAVPSNELDVYNFHMIGRLPGSLLRFEMTSAVFAQLRRSAARAHLMDDFSETRARRAGMGGFMEHGDIAPTNTAFVRSRGKCRAQLPCFLPESVYAAILNNTCYLTSLMRDDRKLRAHLRQREHHLESY,not soluble

# Source: the DeepSol protein solubility set
